In US20230226096A1 (Orna Therapeutics, Inc., priority 2020, published 2023):

B1: Rabbit Kobuvirus (nucleic acid, listed as Kobuvirus sp.)
DNA: GGGCTATAAATATGGGCATTCCTCTTCCCCCTTCCCCTTTTGAAGATGAGTGCGCATATTCTTGACTCCGCCTGGATTGGCCGCCCAAGGCGTGAACAAGCAGCTAGGCCACCATGACACTGCGGTGGTGTCCGAACCCGCGGGTGCCTTCACGGGCACCTGTGGTATGTAGGACTCCCACCGTGGTCTTCCCTTTCCCCCTCAATCTTTCCCCCTGGTTCGACTAACGGGACCAGTGCTGGAACCTGTCCGGTGAACGGTATAGCAGGCCCCCCCGGCAGAAACACCCGGTGCTTACCCCTTAAGGCTAGCCCCCTTCCATGAATTTGGTTGGGGCAACTAGTGGGTGTACAGTTGGCGTGAACCCTCCGGTCTAGGAGTGCTCTTGCCCAATCCTCTGTGTGTGCCTTGCAGTAGGGACTGGCAATCCTTCGCGTAGGTGATCCGCTGTGCCATGCCATCCTGGCGACAGGAGGCCCAGTGTGCGCAACCTACGTCCCTTCTGGGTGCTGCATTGCATTACCTTTGGAGTAAGCTTGGTGTGCCGAAACCCCAGGGTTTACGTACCACTCGTGGTGTGAGGAATGTGCCGCAGGTACCCCATCCTTGAGGTGGGATCTGAGCGGTAGCTAATTGTCTAGCACCACTTTCTTCCTTTTTTCTTTGCTGGTCACG
B2: Aalivirus (nucleic acid, listed as Aalivirus sp.)
DNA: TTGAAAGGGGGTGCTCAGGGTAGCTCCCTGAGCTCTTCCCTCCACCCTCTTTCAACGTCTGGCCCACGATACGGGCCACCTTTCAATCTTAACTAACTATCCCTTTAATCTATTTGGATTTTCTGGTTTAGAATAATTTGGAACACATAATTGGATTATCTTTTAGGATTGTGGATAGGATTTGTTCGGGATATCACTCCCTTCCTGTGCTAACACATATTCTAATTCCCTCCTTTGTCTATTATCTCTTGGAGGTGGTGCTGAAATATTGCAAGCCACTTGAGTGTATAGATGAAGTAGGCTCAAGATGAATGTTGTGTTACTCAAGGCAAGTGTAGCTATCACTAAGATATTGGTAACGTGAAACGGATTACCGGTAGTAGCGTGATCTTCCGTCTTAGTGCTCTAGTGACTAGAGGACAACGACATGGCATCACATATCTTAACCCTCCAGTTTTGGCATCCGGGACAGAATGGGCTGGATATCCGCTTTCTTTCTGGGGTATGTGATGGGTGGTATTGGGGTAACCACCTTGACCATGACGCTCGATAAGAGTGACCGCCTGATCATTGAAACCTCTAGTATAAAATTCAGGCTGAAATC
B3: Caprine Kobuvirus 12Q108 (nucleic acid, listed as Kobuvirus sp.)
DNA: GGGGGTGGGGGGGGCCTCGGCCCCCTCACCCTCTTTTCCGGTGGCCACGCCCGGGCCACCGATACTTCCCTTCACTCCTTCGGGACTGTTGGGGAGGAACACAACAGGGCTCCCCTGTTTTCCCATTCCTTCCCCCTTTTCCCAACCCCAACCGCCGTATCTGGTGGCGGCAAGACACACGGGTCTTTCCCTCTAAAGCACAATTGTGTGTGTGTCCCAGGTCCTCCTGCGTACGGTGCGGGAGTGCTCCCACCCAACTGTTGTAAGCCTGTCCAACGCGTCGTCCTGGCAAGACTATGACGTCGCATGTTCCGCTGCGGATGCCGACCGGGTAACCGGTTCCCCAGTGTGTGTAGTGCGATCTTCCAGGTCCTCCTGGTTGGCGTTGTCCAGAAACTGCTTCAGGTAAGTGGGGTGTGCCCAATCCCTACAAAGGTTGATTCTTTCACCACCTTAGGAATGCTCCGGAGGTACCCCAGCAACAGCTGGGATCTGACCGGAGGCTAATTGTCTACGGGTGGTGTTTCCTTTTTCTTTTCACACAACTCTACTGCTGACAACTCACTGACTATCCACTTGCTCTCTTGTGCCTTTCTGCTCTGGTTCAAGTTCCTTGATTGTTTTTGACTGCTTTTCACTGCTTTTCTTCTCACAATCCTTGCTCAGTTCAAAGTC

System: HEK293 cells
Assay type: cell-based, human
Settings: luminescence from secreted Gluc in supernatant 24 hours after transfection of HEK293 cells; circular RNA encoding Gluc with the named IRES (UTR truncated to 675 nt)

| Molecule | Expression |
| --- | --- |
| B1 | 3.73E+07 |
| B2 | 2.65E+05 |
| B3 | 2.87E+08 |
